Article PMC6100724, “Proteome‐wide analysis of phospho‐regulated PDZ domain interactions” (Molecular Systems Biology, 2018)
Square brackets hold non-standard residues; d marks the D form. Ends that are not written are not given here. * marks the point of attachment. FITC = O=C1OC2(c3ccc(O)cc3Oc3cc(O)ccc32)c2ccc(NC(=S)*)cc21; pS = N[C@@H](COP(=O)(O)O)C(=O)O

T1: SHANK1 PDZ (human, aa 652-761) (human, UniProt Q9Y566 652-761)
T1 construct: Shank1, human, PDZ, aa 652-761 in pETM-33; source: E. coli BL21 Gold (DE3), purified (Ni2+ Sepharose; tag removed with HRV3C protease)
T1 sequence (looked up): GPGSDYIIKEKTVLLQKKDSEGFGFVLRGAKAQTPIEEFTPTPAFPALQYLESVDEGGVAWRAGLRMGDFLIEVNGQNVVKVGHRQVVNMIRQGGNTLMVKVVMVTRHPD

B1: RPHTNETpSL (MCC peptide, phosphorylated at p-1, unlabelled) (peptide)
peptide: RPHTNET[pS]L
notes: C-terminal peptide of human MCC; also called phosphorylated MCC; source: synthetic peptide, bought: GeneCust
B2: MKRLTSTRL (RPS6KA2 peptide, unphosphorylated, unlabelled) (peptide)
peptide: MKRLTSTRL
notes: C-terminal peptide of human RPS6KA2; also called unphosphorylated RPS6KA2; unphosphorylated ligand; source: synthetic peptide, bought: GeneCust
B3: RPHTNETSL (MCC peptide, unphosphorylated, unlabelled) (peptide)
peptide: RPHTNETSL
notes: C-terminal peptide of human MCC; also called unphosphorylated MCC; source: synthetic peptide, bought: GeneCust
B4: MCC peptide RPHTNETSL (unphosphorylated) (peptide)
peptide: RPHTNETSL
notes: C-terminal nine residues of MCC (colorectal mutant cancer protein), human; source: synthetic peptide, bought: GeneCust
B5: RPS6KA2 peptide MKRLTpSTRL (p-3 phosphorylated) (peptide)
peptide: MKRLT[pS]TRL
notes: C-terminal nine residues of RPS6KA2, human; also called pRPS6KA2; phospho-RPS6KA2; source: synthetic peptide, bought: GeneCust
B6: MCC peptide RPHTNETpSL (p-1 phosphorylated) (peptide)
peptide: RPHTNET[pS]L
notes: C-terminal nine residues of MCC (colorectal mutant cancer protein), human; also called pMCC; source: synthetic peptide, bought: GeneCust
B7: RPS6KA2 peptide MKRLTSTRL (unphosphorylated) (peptide)
peptide: MKRLTSTRL
notes: C-terminal nine residues of RPS6KA2, human; source: synthetic peptide, bought: GeneCust
B8: FITC-RLTpSTRL (RPS6KA2 peptide, p-3 phosphorylated) (peptide)
peptide: {FITC}-RLT[pS]TRL
notes: C-terminal seven residues of RPS6KA2, human; the methods give pS at this position; also called pRPS6KA2; source: synthetic peptide, bought: GeneCust
B9: FITC-KREFIESNV (TANC1 peptide, phosphomimetic at p-6) (peptide)
peptide: {FITC}-KREFIESNV
notes: also called Mimetic TANC1; source: synthetic peptide, bought: GeneCust
B10: FITC-HTNETpSL (MCC peptide, p-1 phosphorylated) (peptide)
peptide: {FITC}-HTNET[pS]L
notes: C-terminal seven residues of MCC, human; also called pMCC; source: synthetic peptide, bought: GeneCust
B11: FITC-RLTETRL (RPS6KA2 peptide, phosphomimetic at p-3) (peptide)
peptide: {FITC}-RLTETRL
notes: C-terminal seven residues of RPS6KA2, human, with S730E; also called Mimetic RPS6KA2; source: synthetic peptide, bought: GeneCust
B12: FITC-KRpSFIESNV (TANC1 peptide, p-6 phosphorylated) (peptide)
peptide: {FITC}-KR[pS]FIESNV
notes: C-terminal nine residues of TANC1, human; also called pTANC1; source: synthetic peptide, bought: GeneCust
B13: FITC-KRSFIESNV (TANC1 peptide, unphosphorylated) (peptide)
peptide: {FITC}-KRSFIESNV
notes: C-terminal nine residues of TANC1, human; source: synthetic peptide, bought: GeneCust
B14: FITC-HTNETEL (MCC peptide, phosphomimetic at p-1) (peptide)
peptide: {FITC}-HTNETEL
notes: also called Mimetic MCC; source: synthetic peptide, bought: GeneCust
B15: FITC-HTNETSL (MCC peptide, unphosphorylated) (peptide)
peptide: {FITC}-HTNETSL
notes: C-terminal seven residues of MCC, human; source: synthetic peptide, bought: GeneCust
B16: FITC-RLTSTRL (RPS6KA2 peptide, unphosphorylated) (peptide)
peptide: {FITC}-RLTSTRL
notes: C-terminal seven residues of RPS6KA2, human; source: synthetic peptide, bought: GeneCust
B17: FITC-RLTSTRL, unphosphorylated RPS6KA2 peptide (peptide)
peptide: {FITC}-RLTSTRL
notes: C-terminal peptide of human RPS6KA2 (RLTSTRL-coo-); also called RPS6KA2 Unphosphorylated; source: synthetic peptide (GeneCust)
B18: FITC-KRSFIESNV, unphosphorylated TANC1 peptide (peptide)
peptide: {FITC}-KRSFIESNV
notes: also called TANC1 Unphosphorylated; source: synthetic peptide (GeneCust)
B19: FITC-KRpSFIESNV, p-6 phosphorylated TANC1 peptide (peptide)
peptide: {FITC}-KR[pS]FIESNV
notes: also called TANC1 Phosphorylated; source: synthetic peptide (GeneCust)
B20: FITC-RLTETRL, phosphomimetic (p-3) RPS6KA2 peptide (peptide)
peptide: {FITC}-RLTETRL
notes: also called RPS6KA2 Mimetic; source: synthetic peptide (GeneCust)
B21: FITC-RLTpSTRL, p-3 phosphorylated RPS6KA2 peptide (peptide)
peptide: {FITC}-RLT[pS]TRL
notes: also called RPS6KA2 Phosphorylated; source: synthetic peptide (GeneCust)
B22: FITC-labeled RPS6KA1 peptide, unphosphorylated (VRKLPSTTL) (peptide)
peptide: VRKLPSTTL
modifications: also: FITC label, position not given here
notes: C-terminal tail of human RPS6KA1; also called unphosphorylated RPS6KA1 peptide; source: synthetic peptide (FITC-labeled)
B23: FITC-labeled RPS6KA1 peptide, p-3 phosphorylated (VRKLPpSTTL) (peptide)
peptide: VRKLP[pS]TTL
modifications: also: FITC label, position not given here
notes: C-terminal tail of human RPS6KA1; also called phosphorylated RPS6KA1; source: synthetic peptide (FITC-labeled)
B24: FITC-HTNETpSL (MCC peptide, phosphorylated at p-1) (peptide)
peptide: {FITC}-HTNET[pS]L
notes: C-terminal peptide of human MCC; also called pMCC; source: synthetic peptide, bought: GeneCust
B25: FITC-HTNETSL (MCC peptide, unphosphorylated) (peptide)
peptide: {FITC}-HTNETSL
notes: C-terminal peptide of human MCC (colorectal mutant cancer protein); also called wild-type MCC peptide; source: synthetic peptide, bought: GeneCust

molecular target: T2, Scribble PDZ1 (His-tagged, aa 719-829) (human, UniProt Q14160 719-829); assay: ITC; iTC200, 25°C, 20 mM HEPES pH 7.4; protein 50-100 μM in the cell, peptide 0.64-3 mM in the syringe; single-site fit, stoichiometry fixed to 0.8-1.1; n = 3; details: both partners purified
T2 construct: human Scribble, PDZ1, aa 719-829, in pETM-11; Used for MST and ITC; removal of the His tag is told only for the NMR samples; also called Scribble PDZ1 wild type; source: E. coli BL21 Gold (DE3), purified (Ni2+ Sepharose), dialysed
T2 sequence (Q14160 719-829): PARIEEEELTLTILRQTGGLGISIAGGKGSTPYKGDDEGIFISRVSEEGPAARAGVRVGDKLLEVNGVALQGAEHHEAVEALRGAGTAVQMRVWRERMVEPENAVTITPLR

fold lower KD than for the unphosphorylated peptide [fold] | Binder
2 | B1

molecular target: T3, Scribble PDZ1 R762A/A743R (human, UniProt Q14160 719-829, R762A | A743R); assay: as above; details: both partners purified
T3 construct: human Scribble, PDZ1, aa 719-829, A743R introduced in the background of R762A; also called R762A/A743R mutant; source: E. coli BL21 Gold (DE3), purified (Ni2+ Sepharose), dialysed
T3 sequence (Q14160 719-829 A743R/R762A): as the sequence (Q14160 719-829) above, with A25R, R44A counted along it

binding result | Binder
binds | B2
binds | B1
binds | B3

molecular target: T4, Scribble PDZ1 (human, aa 719-829) (human, UniProt Q14160 719-829); assay: ITC; iTC200, 25°C, 20 mM HEPES pH 7.4; protein 50-100 µM in the cell, 0.64-3 mM peptide in the syringe; single-site fit, stoichiometry fixed to 0.8-1.1; triplicate; details: both partners purified
T4 construct: Scribble, human, PDZ1, aa 719-829 in pETM-11; The His tag was cleaved only for the NMR samples; nothing is said of cleavage for MST and ITC; also called Scribble PDZ1 wild type; source: E. coli BL21 Gold (DE3), purified (Ni2+ Sepharose)
T4 sequence (Q14160 719-829): as the sequence (Q14160 719-829) above

Kd [µM] | Binder
4.4 | B4
4 | B5
2.6 | B6
18 | B7

molecular target: T5, Scribble PDZ1 A743R (human, UniProt Q14160 719-829, A743R); assay: as above; details: both partners purified
T5 construct: Scribble, human, PDZ1, aa 719-829 in pETM-11, with A743R; the text describes A743R only in the R762A background; source: E. coli BL21 Gold (DE3), purified (Ni2+ Sepharose)
T5 sequence (Q14160 719-829 A743R): as the sequence (Q14160 719-829) above, with A25R counted along it

Kd [µM] | Binder
2.8 | B5
15 | B7

molecular target: T6, Scribble PDZ1 K746A (human, UniProt Q14160 719-829, K746A); assay: as above; details: both partners purified
T6 construct: Scribble, human, PDZ1, aa 719-829 in pETM-11, with K746A; source: E. coli BL21 Gold (DE3), purified (Ni2+ Sepharose)
T6 sequence (Q14160 719-829 K746A): as the sequence (Q14160 719-829) above, with K28A counted along it

Kd [µM] | Binder
10 | B5
10 | B7

molecular target: T7, Scribble PDZ1 R762A (human, UniProt Q14160 719-829, R762A); assay: as above; details: both partners purified
T7 construct: Scribble, human, PDZ1, aa 719-829 in pETM-11, with R762A; source: E. coli BL21 Gold (DE3), purified (Ni2+ Sepharose)
T7 sequence (Q14160 719-829 R762A): as the sequence (Q14160 719-829) above, with R44A counted along it

Kd [µM] | Binder
11.3 | B4
25 | B5
25 | B6
9.7 | B7

molecular target: T8, Scribble PDZ1 R801A (human, UniProt Q14160 719-829, R801A); assay: as above; details: both partners purified
T8 construct: Scribble, human, PDZ1, aa 719-829 in pETM-11, with R801A (text, methods and primers); source: E. coli BL21 Gold (DE3), purified (Ni2+ Sepharose)
T8 sequence (Q14160 719-829 R801A): as the sequence (Q14160 719-829) above, with R83A counted along it

Kd [µM] | Binder
17 | B5
28 | B7

molecular target: T9, Scribble PDZ1 R762A/A743R (human, UniProt Q14160 719-829, A743R | R762A); assay: as above; details: both partners purified
T9 construct: Scribble, human, PDZ1, aa 719-829 in pETM-11, with R762A and A743R; also called R762A/A743R mutant; source: E. coli BL21 Gold (DE3), purified (Ni2+ Sepharose)
T9 sequence (Q14160 719-829 A743R/R762A): as the sequence (Q14160 719-829) above, with A25R, R44A counted along it

Kd [µM] | Binder
5.8 | B4
15 | B5
14 | B6
60 | B7

molecular target: T4, Scribble PDZ1 (human, aa 719-829); assay: MST; FITC-labelled peptide fixed at 25-50 nM, PDZ domain titrated (1:1 dilution series); 50 mM Tris-HCl pH 7.4, 0.1% Tween-20; thermophoresis and T-Jump signal; triplicate; details: both partners purified

Kd [µM] | Binder
1.7 | B8
52 | B9
0.6 | B10
0.7 | B11
101 | B12
42 | B13
1.1 | B14
1.8 | B15
8.9 | B16

molecular target: T10, DLG1 PDZ2 (human, aa 311-407) (human, UniProt Q12959 311-407); assay: as above; details: both partners purified
T10 construct: DLG1, human, PDZ2, aa 311-407 in a modified pRSET vector; also called DLG PDZ2; source: E. coli BL21 Gold (DE3), purified (Ni2+ Sepharose)
T10 sequence (Q12959 311-407): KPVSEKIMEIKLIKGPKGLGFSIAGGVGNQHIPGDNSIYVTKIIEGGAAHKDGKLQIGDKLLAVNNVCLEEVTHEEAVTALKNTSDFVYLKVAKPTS

Kd [µM] | Binder
72 | B8
5.1 | B9
14 | B11
6.1 | B12
2.7 | B13
21 | B14
95 | B16

molecular target: T11, DLG1 PDZ2 (human DLG1 PDZ2 aa 311-407) (human, UniProt Q12959 311-407); assay: MST; FITC-labeled peptide fixed at 25-50 nM, DLG1 PDZ2 titrated (1:1 dilution series); 50 mM Tris-HCl pH 7.4, 0.1% Tween-20; KD from thermophoresis and T-Jump signal; n = 3; details: both partners purified
T11 construct: Disks large homolog 1 (DLG1), human, second PDZ domain, aa 311-407, in a modified pRSET vector (Chi et al, 2009); removal of the His tag is told only for the NMR sample of Scribble PDZ1 and for SHANK1 PDZ; also called DLG PDZ2; source: E. coli BL21 Gold (DE3), purified (Ni2+ Sepharose), dialyzed into 50 mM Tris-HCl pH 7.4
T11 sequence (Q12959 311-407): as above

Kd [µM] | Binder
95 | B17
2.7 | B18
6.1 | B19
14 | B20
72 | B21

molecular target: T1, SHANK1 PDZ (human, aa 652-761); assay: MST; FITC-labelled peptide fixed at 25-50 nM, untagged SHANK1 PDZ titrated (1:1 dilution series); PBS, 10 mM MgCl2, 0.05% Tween-20; thermophoresis and T-Jump signal; triplicate; details: both partners purified

Kd [µM] | Binder
16 | B8
47 | B10
62 | B11
52 | B14
15 | B15
4.5 | B16

molecular target: T2, Scribble PDZ1 (His-tagged, aa 719-829); assay: MST; FITC-labeled peptide fixed at 25-50 nM, protein (Scribble PDZ1 or DLG1 PDZ2) in a 1:1 dilution series; 50 mM Tris-HCl pH 7.4, 0.1% Tween-20; thermophoresis and T-Jump signal; n = 3; details: both partners purified

Kd [µM] | Binder
1 | B22
0.39 | B23

molecular target: T12, DLG1 PDZ2 (His-tagged, aa 311-407) (human, UniProt Q12959 311-407); assay: as above; details: both partners purified
T12 construct: human DLG1, PDZ2, aa 311-407, in a modified pRSET vector; also called DLG PDZ2; source: E. coli BL21 Gold (DE3), purified (Ni2+ Sepharose), dialysed
T12 sequence (Q12959 311-407): as above

Kd [µM] | Binder
57 | B24
6.4 | B25
